For test [1], the target named is T1, human SIRPαBIT expressed on cells (human, UniProt P78324 31-504).
T1 construct: endogenous on U937 cells or transiently expressed on ExpiCHO-S cells; in the SHP-1 assay a ProLink-tagged form on Jurkat cells; also called huSIRPαBIT; U937 cells (huSIRPαBIT)
Kind of test: flow cytometry, ExpiCHO-S cells. In short, it runs like this: (§1)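 After 30 min at 4° C., cells were washed and stained with APC-labelled anti-human IgG F(ab′)₂ (1:6,000) for 30 min at 4° C. Read-out was median fluorescence intensity for U937 and mean fluorescence intensity for ExpiCHO-S cells. EC₅₀ (μg/ml) came from a four-parameter logistic fit.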
A general note: Flow cytometry measures light scatter and fluorescence of single cells or particles in a stream.

In test [2] the target is T1, human SIRPαBIT expressed on cells. Kind of test: flow cytometry, U937 cells. In short, it runs like this:
as §1

Test [3] has the same target. Kind of test: cell-based or functional assay.

T1 sequence (P78324 31-504 limits assumed): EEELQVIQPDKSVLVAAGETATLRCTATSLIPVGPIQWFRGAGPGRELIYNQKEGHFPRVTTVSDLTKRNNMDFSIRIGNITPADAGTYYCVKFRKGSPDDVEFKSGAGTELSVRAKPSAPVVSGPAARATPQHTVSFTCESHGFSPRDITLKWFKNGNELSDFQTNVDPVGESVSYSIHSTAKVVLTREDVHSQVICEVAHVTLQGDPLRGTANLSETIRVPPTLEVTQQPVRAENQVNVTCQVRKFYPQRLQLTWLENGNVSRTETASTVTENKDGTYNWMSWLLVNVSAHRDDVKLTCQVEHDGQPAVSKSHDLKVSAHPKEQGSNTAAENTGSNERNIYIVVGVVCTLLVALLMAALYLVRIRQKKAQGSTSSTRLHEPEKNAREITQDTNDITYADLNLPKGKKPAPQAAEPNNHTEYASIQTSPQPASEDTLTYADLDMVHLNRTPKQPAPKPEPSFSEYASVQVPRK

B1: KWAR23-LALA (chimeric IgG1, LALA) (antibody)
heavy: not shown
light: QIVLTQSPAIMSASPGEKVTLTCSASSSVSSSYLYWYQQKPGSSPKLWIYSTSNLASGVPARFSGSGSGTSYSLTISSMEAEDAASYFCHQWSSYPRTFGAGTKLELKRTVAAPSVFIFPPSDEQLKSGTASVVCLLNNFYPREAKVQWKVDNALQSGNSQESVTEQDSKDSTYSLSSTLTLSKADYEKHKVYACEVTHQGLSSPVTKSFNRGEC
notes: chimeric human IgG1 LALA, kappa; also called KWAR23huIgG1LALA
B1: the EC50 (commonly the concentration needed to bring the measured effect to its halfway point) in test [1] was found to be 0.16 µg/mL; in test [2], 0.07 µg/mL.

B2: humanized anti-SIRPα antibody 6 (antibody, human IgG1, kappa, L234A L235A, V domains shown)
VH: RQLVESGGGLVQPGGSLRLSCTASGFSLSSHGISWVRQAPGKGLEYIGTIGTGVITYFASWAKGRFTGSKTSSTAYMELSSLRSEDTAVYFCARGSAWNDPFDPWGQGTLVTVSS
VL: DIVMTQSPSSLSASVGDRVTITCQASQSVYGNNDLAWYQQKPGQAPKLLIYLASTLATGVPSRFSGSGSGTDFTLTISSLQPEDFATYYCLGGGDDEADNTFGQGTKVEIKR
notes: human IgG1 LALA, kappa; also called mAb 6
For the molecule B2, the EC50 in test [1] was determined as 0.01 µg/mL; in test [2], 0.09 µg/mL. In addition, the “IC50 (read off the curve), CD47-driven SHP-1 recruitment to SIRPαBIT” value in test [3] is roughly 0.2 µg/mL.

Source of the values: patent publication US20210388107A1 (BYONDIS B V, published 2021).
